Test results as given in paper doi:10.1101/2024.07.15.603533 (bioRxiv, 2024).

B1: recombinant kinetoplastid membrane protein-11 (r-KMP-11), wild type (natural protein, Leishmania donovani)
chain: MATTYEEFSAKLDRLDQEFNRKMQEQNAKFFADKPDESTLSPEMREHYEKFERMIKEHTEKFNKKMHEHSEHFKQKFAELLEQQKAAQYPSK

Columns and labels:
[1] = target: the molecule itself; assay: negative stain electron microscopy
[2] = target: B1; assay: fluorescence correlation spectroscopy
[3] = target: the molecule itself; assay: single-molecule photobleaching step analysis

Row | Binder | stoichiometry N [1] | binding result [2] | stoichiometry N [3]
1 | B1 | 4 |  | 
2 | Alexa488-maleimide labelled r-KMP-11 S38C (natural protein, Leishmania donovani, Alexa 488 maleimide on the single cysteine (S38C); labeling percentage 86%) MATTYEEFSAKLDRLDQEFNRKMQEQNAKFFADKPDECTLSPEMREHYEKFERMIKEHTEKFNKKMHEHSEHFKQKFAELLEQQKAAQYPSK |  | binds | 4
